The target of one data set is T1, AbiA (Lactococcus lactis, UniProt Q48596).
T1 construct: full-length, 628 residues, N-terminal His6-tag kept (no SUMO), made in E. coli BL21 Star; plasmid-encoded in the source; homodimer (148 kDa theoretical); co-purifies with covalently attached ssDNA
T1 sequence (Q48596 1-628): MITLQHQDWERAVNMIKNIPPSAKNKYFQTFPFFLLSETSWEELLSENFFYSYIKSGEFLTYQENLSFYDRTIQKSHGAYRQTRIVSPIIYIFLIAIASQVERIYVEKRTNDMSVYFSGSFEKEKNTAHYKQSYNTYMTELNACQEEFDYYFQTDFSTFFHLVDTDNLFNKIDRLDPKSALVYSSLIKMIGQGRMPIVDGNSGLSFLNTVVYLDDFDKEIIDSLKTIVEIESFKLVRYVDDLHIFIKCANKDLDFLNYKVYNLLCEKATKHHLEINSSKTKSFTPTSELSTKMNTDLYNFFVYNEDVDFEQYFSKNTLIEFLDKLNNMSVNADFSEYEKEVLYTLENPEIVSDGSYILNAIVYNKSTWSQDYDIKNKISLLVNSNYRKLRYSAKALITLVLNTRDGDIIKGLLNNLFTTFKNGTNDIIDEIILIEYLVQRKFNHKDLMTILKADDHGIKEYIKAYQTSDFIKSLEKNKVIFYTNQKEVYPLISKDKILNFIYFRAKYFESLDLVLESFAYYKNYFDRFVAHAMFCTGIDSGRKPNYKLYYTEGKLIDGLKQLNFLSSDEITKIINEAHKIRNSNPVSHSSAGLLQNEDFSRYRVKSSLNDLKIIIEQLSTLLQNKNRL
Description: extension of […]-labelled co-purified covalently attached DNA, urea-PAGE autoradiography. It counts as biochemical. The settings on record: 200 uM single dNTP, 50 mM Tris pH 7.0, 250 mM NaCl, 10 mM MgCl2, 5 mM DTT, 37 C; DNA pre-labelled with alpha-33P-dATP; template-independent, protein-primed.

Data set [1] concerns the molecule itself. Description: SEC-MALS; Superdex 200 Increase 10/300 GL; 25 mM Tris pH 7.0, 400 mM NaCl, 2% glycerol, 1 mM DTT; 0.75 ml/min; self-association of AbiA variants. (Size exclusion chromatography separates by hydrodynamic size, large species first.)
Data set [2] concerns the molecule itself. Description: SEC-MALS; GF/MALS of tryptophan substitution variants of the dimer interface; data not shown.

Where a chain is given by its changes, count along the chain named. Numbers in names are those of the source.

For the molecule `Nc1ncnc2c1ncn2[C@H]1C[C@H](O)[C@@H](COP(=O)(O)OP(=O)(O)OP(=O)(O)O)O1` [dATP], the “extension of 33P-labelled co-purified covalently attached DNA, urea-PAGE autorad” value on AbiA is “dATP and dCTP were incorporated with efficiencies similar to those observed with dNTP mix”. Turning to `Nc1ccn([C@H]2C[C@H](O)[C@@H](COP(=O)(O)OP(=O)(O)OP(=O)(O)O)O2)c(=O)n1` [dCTP], the “extension of 33P-labelled co-purified covalently attached DNA, urea-PAGE autorad” value at AbiA is “dATP and dCTP were incorporated with efficiencies similar to those observed with dNTP mix”.

B1: His6-SUMO-AbiA fusion protein (full-length AbiA from L. lactis with uncleaved SUMO tag) (enzyme, UniProt Q48596 1-628, looked up)
chain: T1 sequence (Q48596 1-628)
modifications: co-purified ssDNA; the paper shows covalent attachment, with priming at Tyr298 or Tyr303, on the His-tagged protein; 5-9 nt visible in the structure
notes: AbiA, plasmid-encoded abortive infection RT-like polymerase of Lactococcus lactis, full length, 628 amino acid residues; synthetic gene in pET28a-SUMO; The SUMO tag is not visible in the structure; also called full-length SUMO-tagged AbiA; AbiA with an uncleaved SUMO tag; source: E. coli BL21 STAR, purified (HisTrap HP, Superdex 200); not shown: His6, N-terminal, kept; SUMO, N-terminal, kept
Consider B1, for which the stoichiometry N (commonly a count of units in the complex or per binding partner) in data set [1] was found to be 2.

B2: AbiA Y80W/T269W/L515W (enzyme, L. lactis, UniProt Q48596 1-628, looked up)
chain: T1 sequence (Q48596 1-628) with Y80W, T269W, L515W
notes: AbiA of Lactococcus lactis, 628 residues, with tryptophan substitutions in the dimer interface; The methods say point substitutions were introduced into the N-terminal His6-tag construct; Expression and purification of this variant are not described separately
For B2, the “stoichiometry N” value in data set [2] was 2.

B3: AbiA L515W (enzyme, L. lactis, UniProt Q48596 1-628, looked up)
chain: T1 sequence (Q48596 1-628) with L515W
notes: AbiA of Lactococcus lactis, 628 residues, with a tryptophan substitution in the dimer interface; The methods say point substitutions were introduced into the N-terminal His6-tag construct; Expression and purification of this variant are not described separately
Turning to B3, the “stoichiometry N” value in data set [2] stood at 2.

B4: AbiA L162W/R601A (enzyme, L. lactis, UniProt Q48596 1-628, looked up)
chain: T1 sequence (Q48596 1-628) with L162W, R601A
notes: AbiA of Lactococcus lactis, 628 residues, with substitutions in the dimer interface; The methods say point substitutions were introduced into the N-terminal His6-tag construct; Expression and purification of this variant are not described separately
As to B4, the “stoichiometry N” value in data set [2] is 2.

B5: full-length untagged AbiA (enzyme, L. lactis, UniProt Q48596 1-628, looked up)
chain: T1 sequence (Q48596 1-628)
modifications: co-purified ssDNA covalently attached (priming at Tyr298 or Tyr303)
notes: AbiA, plasmid-encoded abortive infection RT-like polymerase of Lactococcus lactis, full length, 628 amino acid residues; The results call it 'untagged'; The only SUMO-free construct in the methods carries an N-terminal His6-tag, and the SUMO tag could not be cleaved, so this is probably His6-AbiA; also called AbiA without SUMO tag; AbiA without a tag; source: E. coli BL21 STAR, purified (HisTrap …)
For B5, the “stoichiometry N” value in data set [1] turned out to be 2.

B6: AbiA Y80W/T269W (enzyme, L. lactis, UniProt Q48596 1-628, looked up)
chain: T1 sequence (Q48596 1-628) with Y80W, T269W
notes: as for B2
As for B6, the “stoichiometry N” value in data set [2] was found to be 2.
